In article PMC4240654 (2014):

B1: BDD rFVIIIa (ReFacto) (protein)
chain 1: ATRRYYLGAVELSWDYMQSDLGELPVDARFPPRVPKSFPFNTSVVYKKTLFVEFTDHLFNIAKPRPPWMGLLGPTIQAEVYDTVVITLKNMASHPVSLHAVGVSYWKASEGAEYDDQTSQREKEDDKVFPGGSHTYVWQVLKENGPMASDPLCLTYSYLSHVDLVKDLNSGLIGALLVCREGSLAKEKTQTLHKFILLFAVFDEGKSWHSETKNSLMQDRDAASARAWPKMHTVNGYVNRSLPGLIGCHRKSVYWHVIGMGTTPEVHSIFLEGHTFLVRNHRQASLEISPITFLTAQTLLMDLGQFLLFCHISSHQHDGMEAYVKVDSCPEEPQLRMKNNEEAEDYDDDLTDSEMDVVRFDDDNSPSFIQIRSVAKKHPKTWVHYIAAEEEDWDYAPLVLAPDDRSYKSQYLNNGPQRIGRKYKKVRFMAYTDETFKTREAIQHESGILGPLLYGEVGDTLLIIFKNQASRPYNIYPHGITDVRPLYSRRLPKGVKHLKDFPILPGEIFKYKWTVTVEDGPTKSDPRCLTRYYSSFVNMERDLASGLIGPLLICYKESVDQRGNQIMSDKRNVILFSVFDENRSWYLTENIQRFLPNPAGVQLEDPEFQASNIMHSINGYVFDSLQLSVCLHEVAYWYILSIGAQTDFLSVFFSGYTFKHKMVYEDTLTLFPFSGETVFMSMENPGLWILGCHNSDFRNRGMTALLKVSSCDKNTGDYYEDSYEDISAYLLSKNNAIEPR
chain 2: SFQKKTRHYFIAAVERLWDYGMSSSPHVLRNRAQSGSVPQFKKVVFQEFTDGSFTQPLYRGELNEHLGLLGPYIRAEVEDNIMVTFRNQASRPYSFYSSLISYEEDQRQGAEPRKNFVKPNETKTYFWKVQHHMAPTKDEFDCKAWAYFSDVDLEKDVHSGLIGPLLVCHTNTLNPAHGRQVTVQEFALFFTIFDETKSWYFTENMERNCRAPCNIQMEDPTFKENYRFHAINGYIMDTLPGLVMAQDQRIRWYLLSMGSNENIHSIHFSGHVFTVRKKEEYKMALYNLYPGVFETVEMLPSKAGIWRVECLIGEHLHAGMSTLFLVYSNKCQTPLGMASGHIRDFQITASGQYGQWAPKLARLHYSGSINAWSTKEPFSWIKVDLLAPMIIHGIKTQGARQKFSSLYISQFIIMYSLDGKKWQTYRGNSTGTLMVFFGNVDSSGIKHNIFNPPIIARYIRLHPTHYSIRSTLRMELMGCDLNSCSMPLGMESKAISDAQITASSYFTNMFATWSPSKARLHLQGRSNAWRPQVNNPKEWLQVDFQKTMKVTGVTTQGVKSLLTSMYVKEFLISSSQDGHQWTLFFQNGKVKVFQGNQDSFTPVVNSLDPPLLTRYLRIHPQSWVHQIALRMEVLGCEAQDLY
modifications: B-domain deleted, thrombin-activated
B2: SC rFVIIIFc (thrombin-activated) (protein)
chain 1: ATRRYYLGAVELSWDYMQSDLGELPVDARFPPRVPKSFPFNTSVVYKKTLFVEFTDHLFNIAKPRPPWMGLLGPTIQAEVYDTVVITLKNMASHPVSLHAVGVSYWKASEGAEYDDQTSQREKEDDKVFPGGSHTYVWQVLKENGPMASDPLCLTYSYLSHVDLVKDLNSGLIGALLVCREGSLAKEKTQTLHKFILLFAVFDEGKSWHSETKNSLMQDRDAASARAWPKMHTVNGYVNRSLPGLIGCHRKSVYWHVIGMGTTPEVHSIFLEGHTFLVRNHRQASLEISPITFLTAQTLLMDLGQFLLFCHISSHQHDGMEAYVKVDSCPEEPQLRMKNNEEAEDYDDDLTDSEMDVVRFDDDNSPSFIQIRSVAKKHPKTWVHYIAAEEEDWDYAPLVLAPDDRSYKSQYLNNGPQRIGRKYKKVRFMAYTDETFKTREAIQHESGILGPLLYGEVGDTLLIIFKNQASRPYNIYPHGITDVRPLYSRRLPKGVKHLKDFPILPGEIFKYKWTVTVEDGPTKSDPRCLTRYYSSFVNMERDLASGLIGPLLICYKESVDQRGNQIMSDKRNVILFSVFDENRSWYLTENIQRFLPNPAGVQLEDPEFQASNIMHSINGYVFDSLQLSVCLHEVAYWYILSIGAQTDFLSVFFSGYTFKHKMVYEDTLTLFPFSGETVFMSMENPGLWILGCHNSDFRNRGMTALLKVSSCDKNTGDYYEDSYEDISAYLLSKNNAIEPR
chain 2: SFQKKTRHYFIAAVERLWDYGMSSSPHVLRNRAQSGSVPQFKKVVFQEFTDGSFTQPLYRGELNEHLGLLGPYIRAEVEDNIMVTFRNQASRPYSFYSSLISYEEDQRQGAEPRKNFVKPNETKTYFWKVQHHMAPTKDEFDCKAWAYFSDVDLEKDVHSGLIGPLLVCHTNTLNPAHGRQVTVQEFALFFTIFDETKSWYFTENMERNCRAPCNIQMEDPTFKENYRFHAINGYIMDTLPGLVMAQDQRIRWYLLSMGSNENIHSIHFSGHVFTVRKKEEYKMALYNLYPGVFETVEMLPSKAGIWRVECLIGEHLHAGMSTLFLVYSNKCQTPLGMASGHIRDFQITASGQYGQWAPKLARLHYSGSINAWSTKEPFSWIKVDLLAPMIIHGIKTQGARQKFSSLYISQFIIMYSLDGKKWQTYRGNSTGTLMVFFGNVDSSGIKHNIFNPPIIARYIRLHPTHYSIRSTLRMELMGCDLNSCSMPLGMESKAISDAQITASSYFTNMFATWSPSKARLHLQGRSNAWRPQVNNPKEWLQVDFQKTMKVTGVTTQGVKSLLTSMYVKEFLISSSQDGHQWTLFFQNGKVKVFQGNQDSFTPVVNSLDPPLLTRYLRIHPQSWVHQIALRMEVLGCEAQDLY
modifications: single-chain Fc fusion, thrombin-activated
B3: rFVIIIFc (thrombin-activated) (protein)
chain 1: ATRRYYLGAVELSWDYMQSDLGELPVDARFPPRVPKSFPFNTSVVYKKTLFVEFTDHLFNIAKPRPPWMGLLGPTIQAEVYDTVVITLKNMASHPVSLHAVGVSYWKASEGAEYDDQTSQREKEDDKVFPGGSHTYVWQVLKENGPMASDPLCLTYSYLSHVDLVKDLNSGLIGALLVCREGSLAKEKTQTLHKFILLFAVFDEGKSWHSETKNSLMQDRDAASARAWPKMHTVNGYVNRSLPGLIGCHRKSVYWHVIGMGTTPEVHSIFLEGHTFLVRNHRQASLEISPITFLTAQTLLMDLGQFLLFCHISSHQHDGMEAYVKVDSCPEEPQLRMKNNEEAEDYDDDLTDSEMDVVRFDDDNSPSFIQIRSVAKKHPKTWVHYIAAEEEDWDYAPLVLAPDDRSYKSQYLNNGPQRIGRKYKKVRFMAYTDETFKTREAIQHESGILGPLLYGEVGDTLLIIFKNQASRPYNIYPHGITDVRPLYSRRLPKGVKHLKDFPILPGEIFKYKWTVTVEDGPTKSDPRCLTRYYSSFVNMERDLASGLIGPLLICYKESVDQRGNQIMSDKRNVILFSVFDENRSWYLTENIQRFLPNPAGVQLEDPEFQASNIMHSINGYVFDSLQLSVCLHEVAYWYILSIGAQTDFLSVFFSGYTFKHKMVYEDTLTLFPFSGETVFMSMENPGLWILGCHNSDFRNRGMTALLKVSSCDKNTGDYYEDSYEDISAYLLSKNNAIEPR
chain 2: SFQKKTRHYFIAAVERLWDYGMSSSPHVLRNRAQSGSVPQFKKVVFQEFTDGSFTQPLYRGELNEHLGLLGPYIRAEVEDNIMVTFRNQASRPYSFYSSLISYEEDQRQGAEPRKNFVKPNETKTYFWKVQHHMAPTKDEFDCKAWAYFSDVDLEKDVHSGLIGPLLVCHTNTLNPAHGRQVTVQEFALFFTIFDETKSWYFTENMERNCRAPCNIQMEDPTFKENYRFHAINGYIMDTLPGLVMAQDQRIRWYLLSMGSNENIHSIHFSGHVFTVRKKEEYKMALYNLYPGVFETVEMLPSKAGIWRVECLIGEHLHAGMSTLFLVYSNKCQTPLGMASGHIRDFQITASGQYGQWAPKLARLHYSGSINAWSTKEPFSWIKVDLLAPMIIHGIKTQGARQKFSSLYISQFIIMYSLDGKKWQTYRGNSTGTLMVFFGNVDSSGIKHNIFNPPIIARYIRLHPTHYSIRSTLRMELMGCDLNSCSMPLGMESKAISDAQITASSYFTNMFATWSPSKARLHLQGRSNAWRPQVNNPKEWLQVDFQKTMKVTGVTTQGVKSLLTSMYVKEFLISSSQDGHQWTLFFQNGKVKVFQGNQDSFTPVVNSLDPPLLTRYLRIHPQSWVHQIALRMEVLGCEAQDLY
modifications: Fc fusion, thrombin-activated

biological target: Factor IXa (Homo sapiens, UniProt P00740); assay: FXa generation assay
Sequence (P00740 47-191): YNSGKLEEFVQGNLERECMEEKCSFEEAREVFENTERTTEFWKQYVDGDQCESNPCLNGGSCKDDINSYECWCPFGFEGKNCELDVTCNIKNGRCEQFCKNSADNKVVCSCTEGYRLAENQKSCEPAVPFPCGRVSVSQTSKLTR

Row | Binder | Kd
1 | B1 | 4.5 nM
2 | B2 | 4.1 nM
3 | B3 | 5.5 nM
